US8026218
Where two headings read alike, the source gives them in different places. Each block holds one substance with its values, some of them ahead of it.

Assays:
[1] = biological target: δ opioid receptor of the mouse isolated vas deferens (mouse) (UniProt P32300); assay: cell-based or functional assay
[2] = biological target: human δ opioid receptor (human) (UniProt P41143); assay: competition vs [3H]DPDPE, hDOR cell membranes
[3] = biological target: rat µ opioid receptor (rat) (UniProt P33535); assay: competition vs [3H]DAMGO, rMOR cell membranes
[4] = biological target: rat µ opioid receptor (rat) (UniProt P33535); assay: cell-based or functional assay
[5] = biological target: human δ opioid receptor (human) (UniProt P41143); assay: cell-based or functional assay
rat NK1 receptor (rat) [6] = biological target: rat NK1 receptor (rat) (UniProt P14600); assay: competition vs [3H]Substance P, rNK1 CHO cell membranes
[7] = biological target: human NK1 receptor (human) (UniProt P25103); assay: competition vs [3H]Substance P, hNK1 CHO cell membranes
[8] = biological target: guinea pig NK1 receptor (guinea pig) (UniProt P30547); assay: cell-based or functional assay
[9] = biological target: µ opioid receptor of the guinea pig isolated ileum (guinea pig) (UniProt P97266); assay: cell-based or functional assay
[10] = biological target: human NK1 receptor (human) (UniProt P25103); assay: radioligand competition vs [3H]substance P, membranes of hNK1 CHO cells
[11] = biological target: human δ opioid receptor (human) (UniProt P41143); assay: radioligand competition vs [3H]DPDPE, membranes of hDOR cells
[12] = biological target: rat µ opioid receptor (rat) (UniProt P33535); assay: radioligand competition vs [3H]DAMGO, membranes of rMOR cells
rat NK1 receptor (rat) [13] = biological target: rat NK1 receptor (rat) (UniProt P14600); assay: radioligand competition vs [3H]substance P, membranes of rNK1 CHO cells
[14] = biological target: rat µ opioid receptor (rat) (UniProt P33535); assay: radioligand saturation, rMOR membranes
[15] = biological target: rat µ opioid receptor (rat) (UniProt P33535); assay: cell-based or functional assay; remark: listed apart in the source
[16] = biological target: human δ opioid receptor (human) (UniProt P41143); assay: radioligand saturation, hDOR membranes
[17] = biological target: human δ opioid receptor (human) (UniProt P41143); assay: radioligand saturation, hDOR cell membranes

human NK1 receptor (human), sequence (P25103 whole entry): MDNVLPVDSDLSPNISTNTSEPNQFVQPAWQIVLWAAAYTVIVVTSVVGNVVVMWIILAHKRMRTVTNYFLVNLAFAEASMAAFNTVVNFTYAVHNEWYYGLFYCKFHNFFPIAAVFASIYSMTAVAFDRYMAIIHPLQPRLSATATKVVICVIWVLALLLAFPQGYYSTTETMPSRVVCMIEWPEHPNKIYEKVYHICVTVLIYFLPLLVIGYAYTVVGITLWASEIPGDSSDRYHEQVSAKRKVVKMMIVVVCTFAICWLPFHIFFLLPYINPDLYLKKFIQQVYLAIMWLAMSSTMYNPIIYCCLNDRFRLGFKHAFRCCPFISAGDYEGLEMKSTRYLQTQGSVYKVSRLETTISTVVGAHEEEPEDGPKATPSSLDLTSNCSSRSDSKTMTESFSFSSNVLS
rat NK1 receptor (rat), sequence (P14600 whole entry): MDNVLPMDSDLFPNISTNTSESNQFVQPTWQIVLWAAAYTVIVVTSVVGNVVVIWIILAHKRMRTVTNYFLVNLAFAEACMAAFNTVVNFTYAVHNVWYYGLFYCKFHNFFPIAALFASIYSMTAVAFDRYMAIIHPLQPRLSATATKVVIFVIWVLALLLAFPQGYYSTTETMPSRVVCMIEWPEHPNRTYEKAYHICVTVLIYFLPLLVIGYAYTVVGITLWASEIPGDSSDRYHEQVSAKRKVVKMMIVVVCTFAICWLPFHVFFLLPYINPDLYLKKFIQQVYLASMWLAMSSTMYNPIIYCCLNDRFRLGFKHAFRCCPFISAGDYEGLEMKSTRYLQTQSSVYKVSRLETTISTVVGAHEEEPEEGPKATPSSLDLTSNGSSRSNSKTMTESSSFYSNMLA
human δ opioid receptor (human), sequence (P41143 whole entry, stated change not applied): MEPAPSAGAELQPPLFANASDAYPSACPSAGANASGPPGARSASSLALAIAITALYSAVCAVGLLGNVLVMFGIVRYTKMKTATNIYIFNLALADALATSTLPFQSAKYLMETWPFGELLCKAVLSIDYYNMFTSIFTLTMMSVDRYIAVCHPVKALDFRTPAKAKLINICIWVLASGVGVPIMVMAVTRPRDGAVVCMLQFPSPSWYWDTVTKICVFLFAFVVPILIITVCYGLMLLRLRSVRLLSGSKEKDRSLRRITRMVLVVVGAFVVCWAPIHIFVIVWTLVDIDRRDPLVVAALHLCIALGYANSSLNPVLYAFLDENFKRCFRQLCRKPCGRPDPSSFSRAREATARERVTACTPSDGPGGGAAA
δ opioid receptor of the mouse isolated vas deferens (mouse), sequence (P32300 whole entry, stated change not applied): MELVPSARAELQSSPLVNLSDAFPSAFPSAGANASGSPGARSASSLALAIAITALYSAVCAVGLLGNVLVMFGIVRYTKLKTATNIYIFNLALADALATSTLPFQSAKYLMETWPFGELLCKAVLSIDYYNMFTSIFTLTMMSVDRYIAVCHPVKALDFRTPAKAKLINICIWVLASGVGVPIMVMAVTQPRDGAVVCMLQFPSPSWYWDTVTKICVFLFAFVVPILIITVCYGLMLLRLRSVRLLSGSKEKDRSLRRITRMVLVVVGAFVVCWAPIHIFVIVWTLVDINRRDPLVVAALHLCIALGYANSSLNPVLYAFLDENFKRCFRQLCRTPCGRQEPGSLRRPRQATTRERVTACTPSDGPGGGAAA
rat µ opioid receptor (rat), sequence (P33535 whole entry): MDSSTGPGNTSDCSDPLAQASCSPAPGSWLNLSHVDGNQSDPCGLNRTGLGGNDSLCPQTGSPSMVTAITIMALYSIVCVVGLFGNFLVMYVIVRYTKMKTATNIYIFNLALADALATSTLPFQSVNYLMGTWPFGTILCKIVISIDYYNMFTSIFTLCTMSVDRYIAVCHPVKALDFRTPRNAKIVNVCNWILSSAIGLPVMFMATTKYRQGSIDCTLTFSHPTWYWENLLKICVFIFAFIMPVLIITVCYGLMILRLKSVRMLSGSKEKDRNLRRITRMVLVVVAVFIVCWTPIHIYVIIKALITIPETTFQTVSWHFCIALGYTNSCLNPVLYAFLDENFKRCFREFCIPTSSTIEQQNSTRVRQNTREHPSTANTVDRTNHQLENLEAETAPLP
guinea pig NK1 receptor (guinea pig), sequence (P30547 whole entry): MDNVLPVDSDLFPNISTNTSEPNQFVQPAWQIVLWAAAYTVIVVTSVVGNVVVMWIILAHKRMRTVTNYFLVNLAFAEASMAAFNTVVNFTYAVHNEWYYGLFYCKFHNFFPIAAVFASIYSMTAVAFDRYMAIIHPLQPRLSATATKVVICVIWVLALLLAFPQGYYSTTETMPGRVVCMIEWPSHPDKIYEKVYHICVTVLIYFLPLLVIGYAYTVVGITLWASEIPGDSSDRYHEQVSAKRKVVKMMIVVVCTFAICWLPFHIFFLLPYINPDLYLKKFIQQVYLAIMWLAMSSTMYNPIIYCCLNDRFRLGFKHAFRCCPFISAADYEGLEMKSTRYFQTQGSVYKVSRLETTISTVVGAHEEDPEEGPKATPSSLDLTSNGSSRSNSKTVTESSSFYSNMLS
µ opioid receptor of the guinea pig isolated ileum (guinea pig), sequence (P97266 whole entry): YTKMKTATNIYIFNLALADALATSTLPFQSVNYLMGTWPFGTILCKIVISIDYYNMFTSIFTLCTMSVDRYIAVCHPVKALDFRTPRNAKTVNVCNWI

- MVD (δ) IC50 [1]: 2.7 nM
- MVD (δ) opioid agonist IC50 [1]: 2.7 nM
Substance: Biphalin (peptide)

Substance: DMT-D-Ala-Trp-O-3′,5′(CF3)2-Bzl (NP48) (peptide)
- MVD δ-agonist IC50 [1]: 408 nM

- Ki [2]: 0.8 nM
- Ki [3]: 0.3 nM
- GTP EC50 [4]: 1.6 nM
- GTP EC50 [5]: 11.5 nM
- Ki (rat NK1 receptor (rat) [6]): 0.28 nM
- Ki [7]: 0.016 nM
Substance: DMT-D-Ala-Trp-O-3′,5′(CF3)2-Bzl (peptide)

Substance: Tyr-D-Ala-Gly-pFPhe-O-3′,5′(CF3)2-Bzl (NP62) (peptide)
- GPI SP-antagonist Ke [8]: 51.8 nM
- MVD δ-agonist IC50 [1]: 184 nM

Substance: Tyr-D-Ala-Trp-O-3′,5′(CF3)2-Bzl (NP43) (peptide)
- GPI SP-antagonist Ke [8]: 49.4 nM
- MVD δ-agonist IC50 [1]: 5.5 % at 1 µM
- GPI µ-agonist IC50 [9]: 3.3 % at 1 µM

- Ki [2]: 100 nM
- Ki [3]: 178 nM
- GTP EC50 [4]: 168 nM
- GTP EC50 [5]: 90.9 nM
- Ki (rat NK1 receptor (rat) [6]): 2.94 nM
- Ki [7]: 0.004 nM
Substance: Tyr-D-Ala-Trp-O-3′,5′(CF3)2-Bzl (peptide)

Substance: Tyr-Gly-Trp-O-3′,5′(CF3)2-Bzl (NP42) (peptide)
- GPI µ-agonist IC50 [9]: 2.6 % at 1 µM

- Ki (rat NK1 receptor (rat) [6]): 0.36 nM
- Ki [7]: 0.003 nM
Substance: Tyr-Gly-Trp-O-3′,5′(CF3)2-Bzl (peptide)

- GTP binding rMOR EC50 [4]: 53.8 nM
- GTP binding rMOR Emax [4]: 51.4%
- GTP binding hDOR EC50 [5]: 0.26 nM
- GTP binding hDOR Emax [5]: 41.1%
- Ki [10]: 0.066 nM
- Ki [11]: 5 nM
- Ki [12]: 112 nM
- Ki (rat NK1 receptor (rat) [13]): 7.75 nM
Substance: TyrDAlaGlyPheMetCLeuLeuTrpOBn(CF3)2 (TY021) (peptide)

Substance: Tyr[DCysGlyPheDCys]ProLeuTrpNHBn(CF3)2 (TY037) (peptide)
- GTP binding rMOR EC50 [4]: 52.9 nM
- GTP binding rMOR Emax [4]: 8%
- GTP binding hDOR EC50 [5]: 98.2 nM
- GTP binding hDOR Emax [5]: 26%
- Ki [11]: 7.8 nM
- Ki [12]: 51.5 nM
- Ki (rat NK1 receptor (rat) [13]): 45.5 nM

- Kd [14]: 0.5 nM
- [35S]GTP-γ-S binding LogEC50 [15]: -7.44
- [35S]GTP-γ-S binding EC50 [4]: 37 nM
- [35S]GTP-γ-S binding Emax [4]: 150%
- [35S]GTP-γ-S binding LogEC50 [4]: -7.4
- [35S]GTPγS binding EC50 [4]: 37 nM
- [35S]GTPγS binding Emax [4]: 150%
- [35S]GTPγS binding LogEC50 [4]: -7.4
Substance: [3H]-[D-Ala2,NMePhe4,Gly5-ol]enkephalin (peptide)

- [35S]GTP-γ-S binding EC50 [5]: 1.6 nM
- [35S]GTP-γ-S binding Emax [5]: 69%
- [35S]GTP-γ-S binding LogEC50 [5]: -8.8
- [35S]GTPγS binding EC50 [5]: 1.6 nM
- [35S]GTPγS binding Emax [5]: 69%
- [35S]GTPγS binding LogEC50 [5]: -8.8
- Kd [16]: 0.45 nM
Substance: [3H]-c[D-Pen2,D-Pen5]enkephalin (peptide)

- Kd [17]: 0.45 nM
Substance: c[D-Pen2,D-Pen5]enkephalin (peptide)
